Measurements published in patent US20220332804A1 (CSL INNOVATION, published 2022).

What was measured:
Assay in all cases: SPR, KD relative to WT C2;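 also: biacore SPR at 37 °C, anti-C2 mAbs captured via immobilised goat anti-human IgG, C2 alanine or serine surface mutants as analytes, 1:1 model fitted, double-referenced sensograms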
[1] = target: T1, human C2 E686A (human, UniProt P06681 21-752)
T1 sequence: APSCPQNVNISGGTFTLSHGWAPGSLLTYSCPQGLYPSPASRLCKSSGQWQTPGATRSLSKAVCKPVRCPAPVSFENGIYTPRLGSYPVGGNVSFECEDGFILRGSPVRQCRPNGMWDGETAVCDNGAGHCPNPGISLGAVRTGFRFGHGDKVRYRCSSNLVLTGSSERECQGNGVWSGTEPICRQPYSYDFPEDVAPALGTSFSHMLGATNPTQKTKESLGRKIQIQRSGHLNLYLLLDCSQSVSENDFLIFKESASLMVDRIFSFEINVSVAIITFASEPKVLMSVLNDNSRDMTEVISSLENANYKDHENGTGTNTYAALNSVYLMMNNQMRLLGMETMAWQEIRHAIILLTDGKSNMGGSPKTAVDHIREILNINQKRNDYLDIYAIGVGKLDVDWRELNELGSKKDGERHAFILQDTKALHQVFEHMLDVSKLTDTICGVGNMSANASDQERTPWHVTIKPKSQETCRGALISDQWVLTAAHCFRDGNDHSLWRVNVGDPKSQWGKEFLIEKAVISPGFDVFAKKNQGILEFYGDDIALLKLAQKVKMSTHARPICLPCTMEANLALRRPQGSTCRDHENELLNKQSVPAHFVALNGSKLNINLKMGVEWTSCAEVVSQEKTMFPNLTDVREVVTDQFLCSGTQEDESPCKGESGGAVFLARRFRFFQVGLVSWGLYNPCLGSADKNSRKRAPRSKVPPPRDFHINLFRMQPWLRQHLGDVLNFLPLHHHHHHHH

[2] = target: T2, human C2 I320A (human, UniProt P06681 21-752)
T2 sequence: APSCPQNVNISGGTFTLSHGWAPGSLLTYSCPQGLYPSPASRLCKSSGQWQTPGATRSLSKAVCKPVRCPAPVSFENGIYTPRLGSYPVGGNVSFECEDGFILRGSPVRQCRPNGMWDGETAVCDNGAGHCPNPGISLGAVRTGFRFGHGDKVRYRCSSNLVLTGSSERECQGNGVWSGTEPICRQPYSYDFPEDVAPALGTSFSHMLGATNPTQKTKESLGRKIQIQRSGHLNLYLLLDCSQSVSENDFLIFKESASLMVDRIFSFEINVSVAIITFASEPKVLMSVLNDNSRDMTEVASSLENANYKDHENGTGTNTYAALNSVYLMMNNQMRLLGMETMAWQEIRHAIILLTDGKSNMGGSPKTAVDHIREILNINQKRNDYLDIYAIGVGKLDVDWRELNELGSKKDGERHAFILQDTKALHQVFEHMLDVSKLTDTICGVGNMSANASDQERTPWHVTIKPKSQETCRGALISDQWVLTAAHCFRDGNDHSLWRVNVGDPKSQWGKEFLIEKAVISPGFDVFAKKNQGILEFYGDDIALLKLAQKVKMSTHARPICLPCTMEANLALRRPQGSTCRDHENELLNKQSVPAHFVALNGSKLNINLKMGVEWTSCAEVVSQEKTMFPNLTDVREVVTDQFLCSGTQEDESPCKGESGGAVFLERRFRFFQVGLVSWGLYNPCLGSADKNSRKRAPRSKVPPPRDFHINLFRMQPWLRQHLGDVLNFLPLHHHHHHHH

[3] = target: T3, human C2 D269A (human, UniProt P06681 21-752)
T3 sequence: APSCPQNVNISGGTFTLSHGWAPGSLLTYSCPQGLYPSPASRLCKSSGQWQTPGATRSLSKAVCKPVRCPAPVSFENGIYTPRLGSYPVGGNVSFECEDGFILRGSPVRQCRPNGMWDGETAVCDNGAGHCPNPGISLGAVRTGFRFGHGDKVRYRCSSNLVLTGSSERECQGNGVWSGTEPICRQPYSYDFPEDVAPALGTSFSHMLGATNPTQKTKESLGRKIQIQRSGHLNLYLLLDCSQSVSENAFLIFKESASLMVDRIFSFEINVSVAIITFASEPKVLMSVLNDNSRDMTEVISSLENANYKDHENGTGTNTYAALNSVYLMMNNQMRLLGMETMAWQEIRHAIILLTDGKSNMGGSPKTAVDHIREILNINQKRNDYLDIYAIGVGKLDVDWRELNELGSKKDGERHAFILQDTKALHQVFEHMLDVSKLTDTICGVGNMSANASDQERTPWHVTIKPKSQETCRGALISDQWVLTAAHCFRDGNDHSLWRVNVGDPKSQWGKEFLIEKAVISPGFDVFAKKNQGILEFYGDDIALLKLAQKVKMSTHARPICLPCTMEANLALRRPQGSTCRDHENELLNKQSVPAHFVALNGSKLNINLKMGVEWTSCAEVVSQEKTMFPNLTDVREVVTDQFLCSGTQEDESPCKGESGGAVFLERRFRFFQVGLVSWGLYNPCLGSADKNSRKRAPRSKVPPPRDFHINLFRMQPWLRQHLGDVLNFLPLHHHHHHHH

[4] = target: T4, human C2 L453A (human, UniProt P06681 21-752)
T4 sequence: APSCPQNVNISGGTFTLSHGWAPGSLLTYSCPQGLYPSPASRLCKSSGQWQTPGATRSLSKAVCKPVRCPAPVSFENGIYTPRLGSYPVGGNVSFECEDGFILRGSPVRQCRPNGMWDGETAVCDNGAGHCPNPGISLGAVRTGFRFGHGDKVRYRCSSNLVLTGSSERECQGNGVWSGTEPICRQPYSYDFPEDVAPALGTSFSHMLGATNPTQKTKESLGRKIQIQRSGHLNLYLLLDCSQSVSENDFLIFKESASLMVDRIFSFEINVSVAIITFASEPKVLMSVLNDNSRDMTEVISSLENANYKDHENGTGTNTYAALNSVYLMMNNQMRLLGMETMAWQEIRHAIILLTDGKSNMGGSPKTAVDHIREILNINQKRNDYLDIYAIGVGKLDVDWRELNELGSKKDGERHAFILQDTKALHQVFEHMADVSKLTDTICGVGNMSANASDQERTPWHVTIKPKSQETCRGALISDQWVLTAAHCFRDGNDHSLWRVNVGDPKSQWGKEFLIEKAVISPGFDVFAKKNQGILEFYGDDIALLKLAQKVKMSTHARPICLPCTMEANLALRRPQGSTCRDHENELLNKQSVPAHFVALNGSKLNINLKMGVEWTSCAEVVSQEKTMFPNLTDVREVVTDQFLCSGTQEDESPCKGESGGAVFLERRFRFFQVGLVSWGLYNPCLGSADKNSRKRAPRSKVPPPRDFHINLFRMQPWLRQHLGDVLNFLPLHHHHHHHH

B1: RF16-226 (antibody, human IgG4 S228P, lambda)
heavy: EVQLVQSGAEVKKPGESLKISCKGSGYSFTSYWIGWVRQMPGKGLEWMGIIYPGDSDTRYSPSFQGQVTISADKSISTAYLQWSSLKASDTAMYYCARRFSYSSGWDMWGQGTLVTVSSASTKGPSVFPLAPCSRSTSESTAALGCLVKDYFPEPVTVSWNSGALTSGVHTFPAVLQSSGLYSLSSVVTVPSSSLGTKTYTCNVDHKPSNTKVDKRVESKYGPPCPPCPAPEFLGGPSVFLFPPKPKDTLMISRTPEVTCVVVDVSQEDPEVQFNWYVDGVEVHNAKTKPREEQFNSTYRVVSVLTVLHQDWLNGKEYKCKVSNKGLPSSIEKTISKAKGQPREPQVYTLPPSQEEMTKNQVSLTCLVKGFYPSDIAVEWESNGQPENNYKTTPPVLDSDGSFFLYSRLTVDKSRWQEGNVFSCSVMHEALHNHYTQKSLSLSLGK
light: SYELTQPPSVSVSPGQTARITCSGDALTSKYVAWYQQKSGLAPLLVIYEDTRRPSGIPAKFSGSSSGSVATLTISGAHGDDEADYYCYSTDASGHQRVFGGGTKLTVLSQPKAAPSVTLFPPSSEELQANKATLVCLISDFYPGAVTVAWKADGSPVKAGVETTKPSKQSNNKYAASSYLSLTPEQWKSHRSYSCQVTHEGSTVEKTVAPTECS
notes: pH-dependent anti-C2 antibody from a phage display library; also called WT
- Fold diff [1]: 5 fold
- Fold diff [2]: 12 fold
- Fold diff [3]: 1 fold
- Fold diff [4]: 3 fold
